From the DeepSol protein solubility set

Assay: soluble on expression in E. coli; label from the status in PepcDB or PDB records

Sequence	soluble on expression in E. coli
MADNWGSENVVADAAPATEAPEVALFGKWSLQSVNVSDISLVDYIPVKEKSAKYLPHSAGRFQVRRFRKAACPIVERLANSLMMHGRNNGKKLMTVRIVKHAFEIIYLLTGENPVQVLVNAVINSGPREDSTRIGRAGTVRRQAVDVAPLRRVNQAIWLLCTGAREAAFRNVKTIAECLADELINAAKGSSNSYAIKKKDELERVAKSNR	not soluble
IAPTAQKLSKIYGVRSSIIIGQAALDSHFGSTLLASKYHNLFSIEASPGQGAVRLKSHEYKNGRWQEVTNRYLVYESWKESLYDYMAILHGNKIWDKALYTTMMTSSGYKTVARALQAAGFNSDPNYADKLIAVIEENNLTDYDK	not soluble
MSLRVENLRSSTYRNGPTGLPNRARFSEDLDAVLLQRTADSAATAIAVDLCGSDYFRDMVKALGWDYADGYVALAYKRLISKLPAGTALYRLDTTTFAFMVTTADPLRLSALCSKISKGFVAPLEHQGIPHTAVASIGAVLLETSYGAADTLRSLTTSVDVAREHCLTWSLYERKHDVVQRNTFRLLAALPAALASSNQLRLHYQPRVDLHDHRCVAVEALLRWQHPMIGPVMPSDFIPMAEKTALINRITAWVIDQGIAQAARWQQQGLDFNLALNVSAADLDQPGFVGLLRRGLDRHKLDPRRLEIEFTESAMIRHPEHLSEQLAAVAALGVHIAIDDFGTGYSNFSYLKQLPASSLKIDQSFVRSLPDSRTDRTLVPAMIQLGHSLGQRVVAEGIESAQAYAQLRSWGCDEGQGYWIAKPMPAAALEAWLETPWYQRATDAEGHHHHHH	soluble
MGSDKIHHHHHHMNIIIIGAQASGKMTIGQEIAKQTGMTLFHNHDSIDFVLRFMPWSPDSIALTESIRFKFFETFAKTGQEMIFTIVIDFNDSRDVVFLEKIQIVFQSHNQEVLFVELETELSERLKRNRTENRLKHKPSKRDIKWSESDICSTMDYAIFNPEVAPEALTYYHKINNTCLTATETAYLIIQKINQIKEKN	not soluble
MSQSYHRPRPAGMAGAILDKQASKFNDVEAGYLLEWIRDLTKEDFDCEASRDNFREQLKDGQRLCKLVNAIKAGSVKKIMKPISNFNCLENINQFSTAARSLGVKDEETFQSVDLFDGRDLFSVTVTLQSLARKVEKLGITPPKQVSKDQIVNQ	not soluble
MGSDKIHHHHHHMANALGLDFGTTNTVLAQSIDETTTHSVQFTSMAGTTDSMRTALSFMKDAQLGARALKVEAGQAAIRQFIDNPGDCRFLQSIKTFAASALFQGTLVHARRFQFEDLMEVFLKRLETYAGDGWPATASRIVAGRPVHFAGASPDPELAMRRYNEALTRLGFPEIHYVYEPVAAAFYFAQHLTTDATVLVADFGGGTTDYSLIRFERKAGVLSAVPVGYSGVGLAGDQFDARIIEHLVAPEIGKGSQFKSFDKILDIPSNYYTSFSRWNQLSVFKSSKEFADLKQLVRQSLAPDKLELFIDLVEHDEGYPLYQAVSSTKMALSAADEAEFNFSPLGAAGRKTVKRQDFESWIADDLTRIESALDDVLTRTNTEAGAVDKVFLTGGTSFVPAVRRIFTERFSQDRIESGGEMVSIAHGLALIGDRDDIALWTA	not soluble
MGSDKIHHHHHHMHIRKYDHDYSRRFFMEQAAKGIATAGVLGPLWPMIANSADITKAYPDELMSIDAWSKGKIKTGDFITAENVEIVKELLDPVAYHHIKTMGRKIRIVPTTRDITRMFPAEYLEATLRNQGKAKLDANSNVVSSDGKPWIGGNPFPDAKTGLEVAANLTMCWGRKDNSLTAIRDWEVAPDGSMSYQYDFAWVEQNTTARADGKVLPGGDELLRYNAVYFTGPSDVKGTSYLNTWYYDQRKFPELVGYLPAFKRVRKFPTNQRFEPLVPGMNLYLSDAWAAGDPMLTWGNYKIVGRGPMLGAQSQTWYGDRPNWERPVQGGPKNQTFFETQMELCPDVVIFEAEPTGYPRAPVGKKRVWVDVRNQMYVAYITYDRRGEIFKSFEPQYSFLEKGDKKLMDGKSTAWHWTAVQCYNFQDGRMTRFQPVTSIAGGMSTAFNIDGLYEKYMTQQALQRMGT	not soluble
MSLASIDFRNKINWHRRYRSPQGVKTEHEILRIFESDRGRIINSPAIRRLQQKTQVFPLERNAAVRTRLTHSMEVQQVGRYIAKEILSRLKEQDRLEEYGLDALTGPFESIVEMACLMHDIGNPPFGHFGEAAINDWFRQRLHPEDAESQPLTHDRCVVSSLRLQEGEENLNDIRRKVRQDICHFEGNAQGIRLVHTLMRMNLTWAQVGGILKYTRPAWWRGPVPDSHRYLMKKPGYYLSEEKYIARLRKELQLAPYSRFPLTWIMEAADDISYCVADLEDAVEKRIFSVEQLYHHLYHAWCHHEKDSLFELVVGNAWEKSRANTLSRSTEDQFFMYLRVNTLNKLVPYAAQRFIDNLPQIFAGTFNQALLEDASGFSRLLELYKNVAVEHVFSHPDVEQLELQGYRVISGLLDIYQPLLSLSLNDFRELVEKERLKRFPIESRLFQKLSTRHRLAYVEVVSKLPTDSAEYPVLEYYYRCRLIQDYISGMTDLYAWDEYRRLMAVEQEGHHHHHH	soluble
MIAMIVKGGLAMAISNGHVSFKRPAWLGDSITANNGLATVHYHDILAADWDVERSDNLGISGSTIGSRYDAMAVRYQAIPEDADFIAVFGGVNDYGRDQPLGQYGDCDMTTFYGALMMLLTGLQTNWPTVPKLFISAIHIGSDFGGSFSAVTNGLGYRQSDYEAAIAQMTADYGVPHLSLYRDAGMTFAIPAQAAIYSVDTLHPNNAGHRVIARKLQSFLDSHFLEHHHHHH	soluble
MQIEKLRGQGLDEFFQGILTLENLEECYAFFDDVCTVNEIQSMAQRFQVAKMLHDGKTYNVIESETGASTATISRVKRSLHYGNDMYDVVFSRMTKPE	not soluble
MKRPDYRTLQALDAVIRERGFERAAQKLCITQSAVSQRIKQLENMFGQPLLVRTVPPRPTEQGQKLLALLRQVELLEEEWLGDEQTGSTPLLLSLAVNADSLATWLLPALAPVLADSPIRLNLQVEDETRTQERLRRGEVVGAVSIQHQALPSCLVDKLGALDYLFVSSKPFAEKYFPNGVTRSALLKAPVVAFDHLDDMHQAFLQQNFDLPPGSVPCHIVNSSEAFVQLARQGTTCCMIPHLQIEKELASGELIDLTPGLFQRRMLYWHRFAPESRMMRKVTDALLDYGHKVLRQD	soluble
QAALNSLGTNSVAATTAAQKIDQVATQPLMSFGVTMATFAAQNYGAHQYERIITGVKQTMWLSGSFSVAAGLIEIIWGKQLVGFFVGHQDMAVLNL	not soluble
MNIFAILNHMGVFFKEEPVRQLHAALEKAGYEVVYPVDDKDLIKMIEMNPRICGVLFDWDKYSLELCERISQINEKLPVHAFANEQSTLDISLTDLRLNVSFFEYALGMADDI	not soluble
MVINIRRSRPDEGDKLTAIWCRSVDATHDFLTKAYRKELEEMVRAFLPEAPLWVAVSTEDQPIAFMLLTGDHMDALFVDPDVRGCGVGKLLIEHALSLTPKLTTNVNEQNEQAVGFYQKMGFRVTGRSETDDLGQPYPLLNLMYEQQAEADYD	not soluble
PPYTIVYFPVRGRAEAMRMLLADQGQSWKEEVVTIDTWMQGLLKPTCLYGQLPKFEDGDLTLYQSNAILRHLGRSLGLYGKNQREAAQMDMVNDGVEDLRGKYVTLIYTNYENGKNDYVKALPGHLKPFETLLSQNQGGKAFIVGDQISFADYNLLDLLLIHQVLAPGCLDNFPLLSAYVARLSARPKIKAFLSSPEHVNRPINGNGKQ	soluble
MSLHSLTRIKVLQRRCTVFHSQCESILLRYQDEDRGLQAEEEAILEQIAGLKLLLDTLRAENRQLSREEIYTLLRKQSIVRRQIKDLELQIIQIQEKRSELEKKREEFQKKSKYWLRKEGNYQRWIIRQKRFYIQREIQQEEAESEEIIEGHHHHHH	soluble
MMLSKVLRNSPLLFRVAQPKDHERIIKFLDKHFAKEEPCSRALKISPEISRGVFTATVTRCLTTPFSTVVLQENGDLAACLLASVWNRTDPLENADFDDTGLPENFKLFIQFLNKAHLNFWKIAPPNVNSIIHREIGSVAPQFTRLGIATKMVTTNMTKRNLKKYNIGGVLSETTSLANQIVLEKAGFKCLKELPYSTIVDSKGNQVLKLDDGTTSLCLNFKPIEEYENLPE	not soluble
